# The domain aggregation screens of Martell et al. (2025)
# Experiment: soluble fraction after stress (log2 fold change); higher = more stays soluble; pooled small domains, quantitative proteomics
# Settings: stress: 50 degC
# Summary of the method: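 After stress at 50°C, the amount of each protein still soluble was measured. This was done on pooled custom libraries of small protein domains, using high-throughput quantitative proteomics. The figure given is a base-two log fold change and stands for aggregation propensity, with higher values meaning more protein stays in solution.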
row,Sequence,soluble fraction (log2)
1,HMPAWKINQELQATVIATKANQTRLRIEGQTFETQTAIALKPGQSLLIKVVSLEPQISFALI,-1.45
2,HMTTHEQVAILRRELNGLVGAWHHRTGQAHGVTHSKLRKELGGPPAAVASAAQLSARIEKIRQWAT,-0.635
3,HMSNPPIRIGKKALHELLTTWLSLLSRDGVAYLVVQKNLGADSLTAWLRDQGFPSEKIASKKGFRIIEVH,-0.245
4,HMFPQQGEIRQGVIASITPDQILVNVGTKSEGIISGKELEAISKSERDSLNVDQKIAVYILDPEDSNG,0.259
5,HMSELDASYLGQRVRYVSGFTETDPSEGLVEFRGSNWRARAEHPPLDHSGHWVIVKVESNTLWVEEKSN,-0.22
6,HMEPSERYKALQSLLPDYAKRLKKKGVTRHQLFLEYRLTHPDGYARSRFGTYFQAYLALSHP,-2.27
7,HMSNNENSILEKLNSFSGKKIKVSHTIGSLAARLDEYPKIKMWLYKRIRENSINEQAYKYLIFIIERKVR,-1.2
8,HMIGVQEFAMTYALTRRETEITQLIIQGKSNAMIAGELFISETTVKKHVSNIFEKTGVSRREELMVRVQAE,-1.44
9,HMFGNTGETSGTGVAFTRSPVDGENKIFGEFLVNAQGEDVVAGIRTPQPISEMEQAFPEVYSKFESVAEIL,0.0862
10,HMYNPAYDAEIKVILELARHGYWEEARERADELLKAAPDDTGVKRIQTWVRQQEQRMREQAIEDSIRA,-0.0287
11,HMTIGIGKSLDFNTSGEKAYRIYNFKGAYVGTFKASDMTSLKNEVQKSNVKAGAYMVRSLDGHVNRLIEIK,-0.681
12,HMQYTTDEVRERVLSVLNQLLLRWIVREGKDMFNIQANAVEISEGIKGELNTELEKIGLAATGFQIDSV,-0.52
13,HMNPGHAERGKEIVEVFLRNNGELSMREIAEKSNITITQARRRVNKLLDQGIVEATAPVQSRNRKYRIK,0.134
14,HMNFIPGEKINLKIVQEGKEKNQGVGYLSDGTMVIVENGSQKLGQDVEVVVIKNIQSSAGKIVFGDISK,0.0978
15,HMGTDGLKDIVLEILKEHPNQLAELIDGKQKVLGFLVGQVMKKTNGAANPKEVNEIIQGEIKK,-0.0707
16,HMVPTVSVDRDDTLRFEGRPVDWDVLKRELGAVAGIDELKIYADAKVSALTVSKIMKSASEAGVLQFILVT,-0.188
17,HMAETLLWADAAQEGLNRIVAAQPILVRISAAKRLRDASEQAAKAAGVSTVEIGHVQHASESLQFGDA,0.165
18,HMLPAGSDAILRYLSSGAVKGIGVATAARIVEKFGDETLRILEEEPGRLAEIKGITAAKAKAIGEAFAGQ,-0.168
19,HMLEIRGFTVLLSDRGIVGIIEEIIQNPGQDLLRILSPEKREILVPLHSDLITGINKKKKTITMNLPDGL,-0.465

row,Sequence,soluble fraction (log2)
1,HMVTLYDGFLSELRKRIPRGAELTNTLVDMLYIEREAVYRRLRGEVPFTFIEVMTVSKELGISLDNLAQA,-1.23
2,HMNEMSDTITRLLDAAETGIRLRGYHAVSFRDLAEELGIKSSSVHYYFRQKEDLGLAVVERY,0.0289
3,HMHTNNALWAIADDMRARKDDGEFDTYREGYKWAANNIVKEGIHITAIKLEKAYHKAKSEGKV,-0.0602
4,HMKGKITTNWVSLTSDLGWLRSELYSSGSVLEERISNEGLIELHLENFQNDLIKLLEVEGFDLIKE,-3.1
5,HMPRELKVRDVSHQHAGHAGWREGGETHFEVDMKADVFAGTSRVAAHRMVNKVLANELASRVHALQLNLS,0.0371
6,HMDRSIGDIIAELRDLSAEQVERVLAHQRETGVRFGEAAVALGYASKEDVLFALSQQFHYPYAPEE,-0.146
7,HMEQPLSLKLANNAFSRFWGNANPAEKDTQPNNSDIAKWVIEQSGGKITQTMADKIAQIIRPEWAA,0.184
8,HMVLVGERRQKILEVVSSGKAVTVEELSRILHVSPSTVRRDLRFLESRGLLYRTHGGAMPPV,-1.1
9,HMSVTIDAGGKVYLQESEIADDQLVPRLVAISNNGYDKPIYLRADKTVGYGRVAEVMSLLNAAGFTKLVLV,-0.0288
10,HMEALGLSPRQVDVLRLLVEGRSNKMIMRELELSESTVKTHLQAIFRRLGVSSRTQAVVAAARLGL,-1.25
11,HMNPGAYQVKAGEGLIGLSRRYNVPVDVLASVNNLNTTSSLRVGQTITIPTAAQVNRITQQAQ,0.287
12,HMFNPEQDPKQLTGRERAVADLIGLGANNAEIAIRLSMSERTVKAHLTSIFQQLNVRDRVQLALVMNQL,-0.585
13,HMADQIIEGILGKEGGYVNNPNDKGGPTRWGITQTTARAYGYSGDMKALPRDTAKAIYLSQYWT,-0.183
14,HMIHQPNNETTRNLIAGVVKKSLSVWETRVQVDGVDVTTAKDNLAEVHINIRYRLRHNQTPASLGLRLNLG,0.00106
15,HMRLGQLQSVEEPKFIEVHSGKQGDIGEQTIVEYEIDAKYATGDATINLKLLFRDGLFEIYNFNFSSEALL,0.0828
16,HMSVPVDEVLAALTQKLTDLRTQAMAAKDFSAVDALKAALTEAGVEVRMSKTGVELIAGPRVDAKKLGTL,-0.03
17,HMLKAKKIPVSDLEKFKGIVAEDVVSKAKALILPRGSNLSWLSNVAKKNLIAKLKAEGIEYISVYSS,0.134
18,HMRNGGHTVYRNNGSLFIVVRDGDKLESVASEFRVSPKKLIKYNDLDIHSNVKTGDMIYIRPKA,-0.236
